Molecular target: PA63 (cleaved protective antigen) (Bacillus anthracis) (UniProt P13423)
Experiment: filter binding
Conditions: N15 and N23 = AEGIS dP

PA63 (cleaved protective antigen) (Bacillus anthracis), sequence (P13423 197-764): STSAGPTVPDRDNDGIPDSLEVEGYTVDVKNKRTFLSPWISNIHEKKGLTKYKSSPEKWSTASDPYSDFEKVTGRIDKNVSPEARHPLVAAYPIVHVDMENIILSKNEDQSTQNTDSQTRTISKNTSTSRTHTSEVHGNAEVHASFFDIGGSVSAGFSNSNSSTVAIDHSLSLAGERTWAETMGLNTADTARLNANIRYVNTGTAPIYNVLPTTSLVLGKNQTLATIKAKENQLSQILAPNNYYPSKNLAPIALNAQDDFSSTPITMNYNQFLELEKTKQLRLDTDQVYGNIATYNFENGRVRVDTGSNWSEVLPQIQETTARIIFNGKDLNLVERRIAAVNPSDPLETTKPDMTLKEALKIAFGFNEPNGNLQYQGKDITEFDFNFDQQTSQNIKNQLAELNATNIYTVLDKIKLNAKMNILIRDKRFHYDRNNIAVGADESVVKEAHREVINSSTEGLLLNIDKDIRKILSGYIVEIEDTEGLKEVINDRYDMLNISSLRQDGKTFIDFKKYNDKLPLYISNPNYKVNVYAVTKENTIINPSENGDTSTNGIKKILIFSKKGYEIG

CGTGTAAACCATGGNGTGAGTGNGTAGGTGTCCTGAGGAGGT [PA1T4A6A7]
Kd: 2290 nM
